The record followed here is paper PMC10991234, “An evolved pyrrolysyl-tRNA synthetase with polysubstrate specificity expands the toolbox for engineering enzymes with incorporation of noncanonical amino acids” (Bioresources and Bioprocessing, 2023).

Conditions in all cases: 100 mM Tris-HCl pH 8, 30°C, 1.5 µM PrCl3, 1.5 µM PQQ, 1 mM PES, 150 µM DCPIP
Substrate in data set [1]: CC[C@@H](C)O
Put plainly: purified protein.

Substrate in data set [2]: CC[C@H](C)O
Put plainly: purified protein.

Substrate in data set [3]: CO
Put plainly: dye-linked PES/DCPIP colorimetric assay, Michaelis-Menten fit. Format: biochemical, Pseudomonas putida.

B1: PedH (Pseudomonas putida KT2440) (protein)
chain: AVSNEEILQDPKNPQQIVTNGLGVQGQRYSPLDLLNVNNVKELRPVWAFSFGGEKQRGQQAQPLIKDGVMYLTGSYSRVFAVDARTGKKLWQYDARLPDDIRPCCDVINRGVALYGNLVFFGTLDAKLVALNKDTGKVVWSKKVADHKEGYSISAAPMIVNGKLITGVAGGEFGVVGKIQAYNPENGELLWMRPTVEGHMGYVYKDGKAIENGISGGEAGKTWPGDLWKTGGAAPWLGGYYDPETNLILFGTGNPAPWNSHLRPGDNLYSSSRLALNPDDGTIKWHFQSTPHDGWDFDGVNELISFNYKDGGKEVKAAATADRNGFFYVLDRTNGKFIRGFPFVDKITWATGLDKDGRPIYNDASRPGAPGSEAKGSSVFVAPAFLGAKNWMPMAYNKDTGLFYVPSNEWGMDIWNEGIAYKKGAAFLGAGFTIKPLNEDYIGVLRAIDPVSGKEVWRHKNYAPLWGGVLTTKGNLVFTGTPEGFLQAFNAKTGDKVWEFQTGSGVLGSPVTWEMDGEQYVSVVSGWGGAVPLWGGEVAKRVKDFNQGGMLWTFKLPKQLQQTASVKP
notes: recombinant, pET-28a in E. coli BL21(DE3), purified on Ni-NTA; PQQ and Pr3+ added
Usually Km stands for the substrate concentration at which the rate is half of its maximum. The kcat is the maximal rate divided by the concentration of active sites. Broadly, the kcat/Km is the second-order rate constant that governs catalysis at low substrate concentration. For the protein B1, in “purified protein [1]”, the Km is 0.94 ± 0.13 mM, the kcat stood at 0.42 ± 0.01 s⁻¹ and the kcat/Km was determined as 447 M⁻¹ s⁻¹. In the data set “purified protein [2]”, the Km came out at 1.07 ± 0.18 mM, the kcat stood at 0.43 ± 0.01 s⁻¹ and the kcat/Km was determined as 402 M⁻¹ s⁻¹. For the same protein, in data set [3], the Km is 1.10 mM and the kcat turned out to be 0.15 s⁻¹.
